The source of these data is the supplement of paper PMC12042874.

± gives the uncertainty stated by the source.

This series in a line: amyloid nucleation score (Sup35N fusion, yeast selection) (log enrichment); library NNK3; higher = more nucleation; inactive = no reads after selection. The gist of the method: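 DiMSum was used to calculate nucleation scores as log enrichment of output over input reads, centred on the mode score of non-aggregating sequences. Sequences with fewer than 100 input reads were not scored. Input and output came from Illumina sequencing of plasmid inserts in psi-negative yeast expressing peptides of 20 random codons fused to Sup35N, induced 24 hours with 100 μM copper sulfate and then grown 7 days at 30°C on medium lacking adenine and uracil.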
Turning to YDLGIGNKHVRYLWGPARKK, the amyloid nucleation score result is “inactive”.

In the case of YDLRAALKV, the amyloid nucleation score entry was “inactive”.

In the case of YDNANGRTRIIMISGRVSNY, the amyloid nucleation score result is “inactive”.

With YDRVSMGRFIKR, the amyloid nucleation score result is “inactive”.

With YDVFLIL, the amyloid nucleation score result is “inactive”.

YDVPTSTDSLFATFVYYGRR had an amyloid nucleation score of 1.44 ± 0.12.

Consider YEDQRSLRFCR, for which the amyloid nucleation score result was “inactive”.

YEMENDVS: the amyloid nucleation score result is “inactive”.

Consider YESHLLRNRDSRTYSR, for which the amyloid nucleation score entry was “inactive”.

Take YESHLSRRLLIMYIGAFLGR: the amyloid nucleation score result is “inactive”.

Turning to YFAVMGGITLHLFAVIRSCL, the amyloid nucleation score result was “inactive”.

On to YFCGAVEESERLRGMEGNPD, for which the amyloid nucleation score came out at 0.84 ± 0.2.

Take YFCVCSCVDFGYASYRGYAA: the amyloid nucleation score entry is “inactive”.

For the substance YFFIRVIALYLRVELSL, the amyloid nucleation score entry was “inactive”.

For the substance YFGCSYTNQAFGRSDSSYVD, the amyloid nucleation score entry is “inactive”.

For YFINSFCVAVWIICHQGVCA, the amyloid nucleation score entry was “inactive”.

Turning to YFKRCQGNEQFSRNRNANGA, the amyloid nucleation score result is “inactive”.

With YFRSLGLAIGCNR, the amyloid nucleation score entry is “inactive”.

Consider YFSVLSESVSHSDVFRS, for which the amyloid nucleation score entry was “inactive”.

As to YFVSVGRNKELRGLFTRLVV, the amyloid nucleation score entry is “inactive”.

As for YFVTFVYTKLLCNVRSLL, the amyloid nucleation score was determined as 0.578 ± 0.12.

For YFYGLQWPCD, the amyloid nucleation score entry was “inactive”.

Regarding YGDEASPLSFCIDHEDRVKV, the amyloid nucleation score entry was “inactive”.

As to YGFAYV, the amyloid nucleation score was -0.336 ± 1.1.

YGFCSC: the amyloid nucleation score is -0.033 ± 0.81.

Consider YGFMCLVCIGTCDCKRSWQG, for which the amyloid nucleation score turned out to be 2.28 ± 0.086.

With YGHSRWSKISHRSSACLFGS, the amyloid nucleation score result was “inactive”.

YGLTVCTTGLVFNNWMGSMV displayed an amyloid nucleation score of 1.83 ± 0.11.

In the case of YGMSTG, the amyloid nucleation score result is “inactive”.

For the substance YGMYNMTGNMAFKTPARYIF, the amyloid nucleation score result is “inactive”.

The substance YGNVIFRFVRADERI showed an amyloid nucleation score of 0.314 ± 0.35.

Take YGRRMAHAGGVTGYGNLWCH: the amyloid nucleation score entry was “inactive”.

Regarding YGYFHTRGYVAFE, the amyloid nucleation score entry was “inactive”.

Regarding YHCAFVSINSECMVDGLTLC, the amyloid nucleation score worked out at 0.883 ± 0.15.

On to YHGCPERVWLSA, for which the amyloid nucleation score entry is “inactive”.

Turning to YHMVCNCDWVGVAFYVSYGR, the amyloid nucleation score is 1.91 ± 0.065.

YIALCLRYHTFLMKQEFHVG: the amyloid nucleation score result is “inactive”.

On to YIDFVPLVYTRKFDGEETCI, for which the amyloid nucleation score entry is “inactive”.

Regarding YIFFEWGINPHRGDYVFSFR, the amyloid nucleation score entry is “inactive”.

YIGCCWYSSCDRVSYRYSVM displayed an amyloid nucleation score of 2.78 ± 0.06.

Turning to YIGRAGQFDRRFFGSLCCAM, the amyloid nucleation score result was “inactive”.

In turn, YIIFVNKLSSPYFVT had an amyloid nucleation score of 1.06 ± 0.19.

Take YIITFGSMTCLVVTGNPAIV: the amyloid nucleation score is -0.039 ± 0.66.

Regarding YILNC, the amyloid nucleation score entry is “inactive”.

On to YILSTLAFFGDRNYDMVLGC, for which the amyloid nucleation score result was “inactive”.

In turn, YINFISWNVCVSCLFWLDSV registered an amyloid nucleation score of 2.09 ± 0.054.

Consider YISHWASGSFIVNYIERWMR, for which the amyloid nucleation score came out at 0.707 ± 0.29.

Consider YISLISCMGKVNY, for which the amyloid nucleation score came out at 2.31 ± 0.089.

On to YISLVSWHNGWYSKLICGVV, for which the amyloid nucleation score entry was “inactive”.

YITNVQVIGMMVINSNHKGV displayed an amyloid nucleation score of 3.42 ± 0.058.

Consider YIYRKCVD, for which the amyloid nucleation score entry was “inactive”.

As to YKHVARLEP, the amyloid nucleation score result was “inactive”.

As for YKKVLLDSFYSDTWSSQGSR, the amyloid nucleation score result was “inactive”.

For the substance YKLERTRPDSFMVCERINGH, the amyloid nucleation score result is “inactive”.

Regarding YKLICMSSRWTFLSSRQGEF, the amyloid nucleation score result is “inactive”.

Consider YKLRVNSVETNCTEILTLVE, for which the amyloid nucleation score result is “inactive”.

Consider YKWARYVFTTDNYFWVPAGY, for which the amyloid nucleation score entry was “inactive”.

For YKYGPARCRKRGDSCAKGGG, the amyloid nucleation score result was “inactive”.

For YKYVFHPIFFDQGT, the amyloid nucleation score result was “inactive”.

As for YLCFLSKMVSYSISYQWSRQ, the amyloid nucleation score result was “inactive”.

Take YLDYSFREFCRMNQ: the amyloid nucleation score entry was “inactive”.

Consider YLEEARQYNLQRYWKDLKVL, for which the amyloid nucleation score result is “inactive”.

For the substance YLFLVRSQTLRVRYWTRNPP, the amyloid nucleation score result was “inactive”.

For YLGIFWRFFLRFSRGVTVWL, the amyloid nucleation score was -0.488 ± 0.96.

As to YLIAIG, the amyloid nucleation score entry is “inactive”.

In the case of YLIEYTSSNKPMAPLSDDTQ, the amyloid nucleation score result is “inactive”.

For the substance YLINPVEVD, the amyloid nucleation score entry is “inactive”.

Substance YLISNVFIVLSVDLCDVLGL showed an amyloid nucleation score of 2.44 ± 0.072.

For the substance YLLSMSENMRLALIECVAV, the amyloid nucleation score result was “inactive”.

For YLLSVYLLVATSCMYGNMGE, the amyloid nucleation score entry is “inactive”.

YLLVLMVERF: the amyloid nucleation score result was “inactive”.

YLMVSVNFFSYVLSESRMCG displayed an amyloid nucleation score of 0.85 ± 0.12.

As to YLNISGWSYFNCTRSWLLNR, the amyloid nucleation score result is “inactive”.

YLNNWMSWRRSLRRHIEVVR: the amyloid nucleation score result is “inactive”.

Turning to YLRHIVFNRQDYMSTRLCKH, the amyloid nucleation score entry was “inactive”.

In the case of YLRVQDLWWNKFENARHSSI, the amyloid nucleation score entry is “inactive”.

Take YLSASYIVYFIITEYYSYIF: the amyloid nucleation score result is “inactive”.

Turning to YLSGSDIGFGYERCKIDSGV, the amyloid nucleation score entry is “inactive”.

Turning to YLSICVMFLVASRVRSISSI, the amyloid nucleation score entry was “inactive”.

In the case of YLSINTAEYHFQEQVLVFVY, the amyloid nucleation score result was “inactive”.

Turning to YLSSSYVVGDMSCV, the amyloid nucleation score result is “inactive”.

With YLSTL, the amyloid nucleation score result is “inactive”.

Consider YLTEWDLGNVWRNPSAATPM, for which the amyloid nucleation score entry is “inactive”.

In the case of YLVAKDVSCNWVVTDGRLCH, the amyloid nucleation score entry is “inactive”.

Consider YLVMRSKYLYRFYAMVLKDL, for which the amyloid nucleation score result was “inactive”.

On to YLVQNFKT, for which the amyloid nucleation score is -0.401 ± 0.6.

With YLVSLRLVYSNILEFVKRVC, the amyloid nucleation score result was “inactive”.

Turning to YLVSY, the amyloid nucleation score result is “inactive”.

For YLVVHW, the amyloid nucleation score result is “inactive”.

For YLYRNRS, the amyloid nucleation score entry is “inactive”.

On to YMLLCPRPRGRSLRINNNDE, for which the amyloid nucleation score result is “inactive”.

Turning to YMLLVSGFA, the amyloid nucleation score result is “inactive”.

For YMLTEFYLFPDRILRHRRTD, the amyloid nucleation score entry is “inactive”.

YMPFYDSCVRHAYRSSFR showed an amyloid nucleation score of 0.038 ± 0.43.

Regarding YMVHDHFKSNFRMCGCGYFN, the amyloid nucleation score entry is “inactive”.

Take YNANFFWYLADGIFDA: the amyloid nucleation score entry is “inactive”.

Regarding YNAYLKENLILLYLCRSSRE, the amyloid nucleation score worked out at 2.17 ± 0.063.

Take YNCGHLNYGIVNFLFYVWLI: the amyloid nucleation score entry is “inactive”.

As for YNFVPVFHVNMSVFLCILVL, the amyloid nucleation score is 2.43 ± 0.072.

YNMNVFAGGCAMCMWISRLF showed an amyloid nucleation score of 2.61 ± 0.074.

YNRKWDMQY: the amyloid nucleation score result was “inactive”.

Turning to YPFLSIGLYQCRS, the amyloid nucleation score entry is “inactive”.

As for YPLFECSDAPSQDNDTMLTR, the amyloid nucleation score entry is “inactive”.

As for YPLLEPSRVLVVCDGKGGVP, the amyloid nucleation score result is “inactive”.

As for YPLNLYYQAFYSLIGLVIPP, the amyloid nucleation score entry was “inactive”.

Turning to YPLRSGF, the amyloid nucleation score entry was “inactive”.

As for YPLYVHRCLIMTFMLSLWPR, the amyloid nucleation score result was “inactive”.

YQERL: the amyloid nucleation score result is “inactive”.

With YQGYRFNC, the amyloid nucleation score entry is “inactive”.

For the substance YQIMDPNRLAFVTDMLSRDL, the amyloid nucleation score result is “inactive”.

As to YQNILLAYYDWVVLYQ, the amyloid nucleation score entry is “inactive”.

For the substance YQRYGRGFLRVSSFSLDSRM, the amyloid nucleation score is -0.352 ± 0.81.

YRAYVYEDTFWWAWYQFILL: the amyloid nucleation score result is “inactive”.

Regarding YRDCISEGLKLSNWNELLGK, the amyloid nucleation score entry was “inactive”.

For YRDFDEDCVIL, the amyloid nucleation score entry was “inactive”.

YRDRIGWQVVISII: the amyloid nucleation score is -0.087 ± 0.27.

Regarding YREVYLNRRLERL, the amyloid nucleation score entry is “inactive”.

Take YRKWGCWHRTFRLIYCTVVL: the amyloid nucleation score result was “inactive”.

For the substance YRLPHS, the amyloid nucleation score entry was “inactive”.

Turning to YRPWHDIRTICCSTSSSTIE, the amyloid nucleation score turned out to be 2.5 ± 0.063.

YRRAWRTIILKCTCLNQHV yielded an amyloid nucleation score of 0.2 ± 0.42.

In the case of YRVVC, the amyloid nucleation score was -0.543 ± 1.5.

As for YRWSPWYNYCSSWTWCQMST, the amyloid nucleation score is 1.51 ± 0.13.

Take YSANDLPVNAHGEILKVGLL: the amyloid nucleation score result was “inactive”.

On to YSCGFDLAAWAFTDVIRRRI, for which the amyloid nucleation score result was “inactive”.

YSCLLIYVKYGMASIYGRMF: the amyloid nucleation score result was “inactive”.

Take YSCSYNTSTN: the amyloid nucleation score was -0.52 ± 0.68.

Consider YSDKDSLGSGNSFFSFSEKW, for which the amyloid nucleation score entry was “inactive”.

For YSEFPPTSKQ, the amyloid nucleation score result was “inactive”.

For YSEYMVTNRKVSAGHTARWD, the amyloid nucleation score result was “inactive”.

Take YSFSNVLVLGSTGPGTSSQA: the amyloid nucleation score entry was “inactive”.

With YSFVAVSSFDREHSRIFGVS, the amyloid nucleation score result is “inactive”.
